Laboratory results as given in patent US20230192820A1 (published 2023).

Biological target: Wild type
Assay: ELISA

B1: Mab362 (antibody, V domains shown)
VH: QVQLVESGGGVVQPGRSLRLSCAASGFSFSSYGMHWVRQAPGKGLEWVAVIWYDGSDKYYADSVKGRFTISRDNSKNTLYLQLNSLRAEDTAIYYCARERYFDWIFDFWGQGTLVTVSS
VL: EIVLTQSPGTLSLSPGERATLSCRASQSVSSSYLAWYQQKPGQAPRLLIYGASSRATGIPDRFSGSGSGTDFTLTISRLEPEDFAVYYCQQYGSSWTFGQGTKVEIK
EC50: 0.64 µg/mL
